Substrate: NC(=O)C1=CN([C@@H]2O[C@H](COP(=O)(O)OP(=O)(O)OC[C@H]3O[C@@H](n4cnc5c(N)ncnc54)[C@H](O)[C@@H]3O)[C@@H](O)[C@H]2O)C=CC1
Assay: purified protein, by the assay type
Conditions: other: recombinant enzyme purified from E. coli JM109/pSDE1, assay 50 mM Tris-HCl pH 8.5, 0.06 mM DCIP, 30° C.

B1: Bacillus stearothermophilus UK-563 thermostable diaphorase, recombinant (E. coli JM109/pSDE1), SEQ ID No.1 (Geobacillus stearothermophilus) (protein)
chain: MTNVLYITAHPHDDTQSYSMAVGKAFIDTYKQVHPDHEVIHLDLYKEYIPEIDVDVFSGWGKLRSGKSFEELSDEEKAKVGRMNELCEQFISADKYVFVTPMWNFSFPPVLKAYIDAVAVAGKTFKYTEQGPVGLLTDKKALHIQARGGFYSEGPAAEMEMGHRYLSVIMQFFGVPSFEGLFVEGHAAVPEKAEEIKANAIARAKDLAHTF
  Km: 0.5 mM
